One experiment deals with H3K9me3 mononucleosome (trimethyl-lysine at 9 (H3K9me3)). Put plainly: apparent K1/2 by EMSA. For orientation: In EMSA bound probe runs differently from free probe, usually more slowly.
The target in another experiment is H3K9me0 mononucleosome. Put plainly: apparent K1/2 by EMSA.

B1: Chp2-WT (recombinant) (natural protein)
chain: MVKSADLDLMNSIISESDENFSPPPFTVEEAENSINNKSSTASLESPQNGSWHPSLYGLSVPEKTHIQNSLDLYSHGNSGSQKTHNVSFSCEIRKVKSSKLSPISNMEDSEDKKEEDESSSYKNEFKSSSSASVSSNFEKTSGSDDHNSQSPVPLNEGFEYIASSGSEDKNSDEEFAVEMILDSRMKKDGSGFQYYLKWEGYDDPSDNTWNDEEDCAGCLELIDAYWESRGGKPDLSSLIRLTRSRARSSNEASYVEKDESSNSDDSISYKRRRSRNAANRITDYVDSDLSESSMKEKQSKIEKYMKSDKSSKNFKPPFQKKSWEDLVDCVKTVQQLDNGKLIAKIKWKNGYVSTHDNIIIHQKCPLKIIEYYEAHIKFT
On to B1, for which the results for the Kd with H3K9me3 mononucleosome and with H3K9me0 mononucleosome were 66 nM and 134 nM, respectively.

B2: Chp2 W199A (recombinant) (natural protein)
chain: MVKSADLDLMNSIISESDENFSPPPFTVEEAENSINNKSSTASLESPQNGSWHPSLYGLSVPEKTHIQNSLDLYSHGNSGSQKTHNVSFSCEIRKVKSSKLSPISNMEDSEDKKEEDESSSYKNEFKSSSSASVSSNFEKTSGSDDHNSQSPVPLNEGFEYIASSGSEDKNSDEEFAVEMILDSRMKKDGSGFQYYLKAEGYDDPSDNTWNDEEDCAGCLELIDAYWESRGGKPDLSSLIRLTRSRARSSNEASYVEKDESSNSDDSISYKRRRSRNAANRITDYVDSDLSESSMKEKQSKIEKYMKSDKSSKNFKPPFQKKSWEDLVDCVKTVQQLDNGKLIAKIKWKNGYVSTHDNIIIHQKCPLKIIEYYEAHIKFT
For the molecule B2, the Kd was determined as 145 nM with H3K9me3 mononucleosome and 135 nM with H3K9me0 mononucleosome.

Values taken from PMC11472046 (2024).
